Assay results as given in patent US20250277029A1 (Amgen, published 2025).

What was measured:
[1] = molecular target: human CB1 on stably transfected CB1 CHO cells (human, UniProt P21554 1-472); assay: cell-based or functional assay
[2] = molecular target: T1, GFP-fused huCB1-SMALP (human CB1 in styrene maleic acid lipoparticles) (human, UniProt P21554 1-472); assay: flow cytometry, yeast-displayed IgG, GFP MFI
T1 construct: Prepared as in Luna V. et al. 2018; also called huCB1-GFP-SMALP; wtCB1-SMALP; not shown: GFP fusion

[3] = molecular target: T1, GFP-fused huCB1-SMALP (human CB1 in …); assay: flow cytometry, yeast-displayed IgG, GFP MFI; remark: listed apart in the source

Sequence of human CB1 on stably transfected CB1 CHO cells (P21554 whole entry, the tested form may be a part): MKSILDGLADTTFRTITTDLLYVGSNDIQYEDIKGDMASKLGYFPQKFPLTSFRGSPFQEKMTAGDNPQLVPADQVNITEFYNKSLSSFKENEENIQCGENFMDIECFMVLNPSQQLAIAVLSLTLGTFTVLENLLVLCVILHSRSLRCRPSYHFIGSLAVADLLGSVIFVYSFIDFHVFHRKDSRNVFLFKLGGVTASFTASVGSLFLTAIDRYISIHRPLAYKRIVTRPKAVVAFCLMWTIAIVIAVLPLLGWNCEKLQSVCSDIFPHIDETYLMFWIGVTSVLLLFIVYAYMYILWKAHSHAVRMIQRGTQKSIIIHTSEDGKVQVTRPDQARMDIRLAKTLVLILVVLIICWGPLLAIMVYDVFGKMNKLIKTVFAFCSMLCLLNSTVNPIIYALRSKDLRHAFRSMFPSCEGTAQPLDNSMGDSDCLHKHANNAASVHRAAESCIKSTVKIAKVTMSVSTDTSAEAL
T1 sequence (P21554 whole entry, the tested form may be a part): as above

Row | Binder | IC50 (nM, n = 4), antagonist activity, TR-FRET cAMP assay [1] [nM] | further results
1 | LIBC673952-1 (IgG1 SEFL2 mAb) (antibody, V domains shown) VH: QVQLQESGPGLVKPSQTLSLTCTVSGGSIRRGGDYWSWIRQHPGKGLEWIGHVYYTGQTTYNPSFRGRVTISVNTYKNQFSLKLSSVTAADTAVYYCARDYDILTGYSYYYYGLDVWGQGTTVTVSS VL: DIVMTQSPLSLPVTPGEPASISCRSSQSLLHRSGYNYLDWYLQKPGQSPQLLIYQGSNRASGVPDRFSGSGSGTDFTLKISRVEAEDVGVYYCRQARALPRTFGQGTKVEIKR | 2.48 | 
2 | LIBC680812-1 (IgG1 SEFL2 mAb) (antibody, V domains shown) VH: QVQLQESGPGLVKPSQTLSLTCTVSGGSIRRGGDYWGWIRQHPGKGLEWIGHVYQTGSTKYNPSFKDRATISVNTYKNQFSLKLSSVTAADTAVYYCARNYDTLTGYSYYYYGMDVWGQGTTVTVSS VL: DIQMTQSPSSLSASVGDRVTITCRASQSISSYLNWYQQKPGKAPKLLIYSARRLSSGVPSRFSGSGSGTDFTLTISSLQPEDFATYYCQQYRSYPITFGGGTKVEIKR | 0.68 | 
3 | LIBC523596-1 (antibody, V domains shown) VH: QVQLQESGPGLVKPSQTLSLTCTVSGGSIRRGGDYWSWIRQHPGKGLEWIGHVYQSGQTAYNPNFEDRATISVNTYKNQFSLKLSSVTAADTAVYYCAREYDVVSGYSYYYYGMDVWGQGTTVTVSS VL: DIVMTQSPLSLPVTPGEPASISCRSSQSLLTSSGYNYVDWYLQKPGQSPQLLIYQGSNRASGVPDRFSGSGSGTDFTLKISRVEAEDVGVYYCMQAVKIPRTFGQGTKVEIKR |  | 100 nM huCB1-SMALP binding (normalized to 10D10) [2]: 4.19 fold
4 | LIBC680574-1 (IgG1 SEFL2 mAb) (antibody, V domains shown) VH: QVQLQESGPGLVKPSQTLSLTCTVSGGSIRRGGDYWAWIRQHPGKGLEWIGHVYYTGSTKYNPSFKDRATISVNTYKNQFSLKLSSVTAADTAVYYCARNYDTLTGYSYYYYGMDVWGQGTTVTVSS VL: DIQMTQSPSSLSASVGDRVTITCRASQSISSYLNWYQQKPGKAPKLLIYGARRLGSGVPSRFSGSGSGTDFTLTISSLQPEDFATYYCQQYSSLPVTFGGGTKVEIKR | 0.75 | 
5 | LIBC674200-1 (IgG1 SEFL2 mAb) (antibody, V domains shown) VH: QVQLQESGPGLVKPSQTLSLTCTVSGGSIRRGGDYWSWIRQHPGKGLEWIGHVYYTGQTAYNPNFRNRVRISVNTYKNQFSLKLSSVTAADTAVYYCARGYDVSGYSYYYYGMDVWGQGTTVTVSS VL: DIVMTQSPLSLPVTPGEPASISCRSSQSLLHRSGYNYLDWYLQKPGQSPQLLIYLGSNRASGVPGRFSGSGSGTDFTLKISRVEAEDVGVYYCMQSLQTPRTFGQGTKVEIKR | 2.39 | 
6 | LIBC674229-1 (IgG1 SEFL2 mAb) (antibody, V domains shown) VH: QVQLQESGPGLVKPSQTLSLTCTVSGGSIRRGGDYWSWIRQHPGKGLEWIGHIYQTGQTKYNPSFKGRVRISVNTYKNQFSLKLSSVTAADTAVYYCARGYDVSGYSYYYYGMDVWGQGTTVTVSS VL: DIVMTQSPLSLPVTPGEPASISCRSSQSLLHRSGYNYLDWYLQKPGQSPQLLIYQGSNRASGVPDRFSGSGSGTDFTLKISRVEAEDVGVYYCMQSLQTPRTFGQGTKVEIKR | 4.16 | 
7 | LIBC674090-1 (IgG1 SEFL2 mAb) (antibody, V domains shown) VH: QVQLQESGPGLVKPSQTLSLTCTVSGGSIRRGGDYWSWIRQHPGKGLEWIGHIYYAGSTAYNPNFRGRVRISVNTYKNQFSLKLSSVTAADTAVYYCARGYDTSGYSYYYYGLDVWGQGTTVTVSS VL: DIVMTQSPLSLPVTPGEPASISCRSSQSLLHRSGYNYLDWYLQKPGQSPQLLIYQGSNRASGVPDRFSGSGSGTDFTLKISRVEAEDVGVYYCMQSLQTPRTFGQGTKVEIKR | 1.76 | 
8 | LIBC528148-1 (antibody, V domains shown) VH: QVQLQESGPGLVKPSQTLSLTCTVSGGSIRRGGDYWSWIRQHPGKGLEWIGHIYQSGQTKYNPKLKGRATISVDTYKNQFSLKLSSVTAADTAVYYCARDYDILTGYSYYYYGMDVWGQGTTVTVSS VL: DIQLTQSPSTLSASVGDRVTITCRASQSISNYLNWYQQKPGKAPKLLIYAASSLHSGVPSRFSGSGSGTDFTLTISSLQPEDFASYYCQQYQSYPLTFGQGTKVEIKR |  | 100 nM huCB1-GFP-SMALP binding (normalized to 10D10N35Y) [3]: 3.38 fold
9 | LIBC680562-1 (IgG1 SEFL2 mAb) (antibody, V domains shown) VH: QVQLQESGPGLVKPSQTLSLTCTVSGGSIRRGGDYWAWIRQHPGKGLEWIGHIYQTGSTNYNPRFKGRATISVNTYKNQFSLKLSSVTAADTAVYYCARNYDTLTGYSYYYYGMDVWGQGTTVTVSS VL: DIQMTQSPSSLSASVGDRVTITCRASQSISSYLNWYQQKPGKAPKLLIYSARRLSSGVPSRFSGSGSGTDFTLTISSLQPEDFATYYCQQYAKSPITFGGGTKVEIKR | 0.71 | 
10 | LIBC528116-1 + VK1 germline fix(es) (IgG1 SEFL2 mAb) (antibody, V domains shown) VH: QVQLQESGPGLVKPSQTLSLTCTVSGGSIRRGGDYWAWIRQHPGKGLEWIGHVYYTGSTNYNPRFKDRATISVNTYKNQFSLKLSSVTAADTAVYYCARNYDTVTGYSYYYYGMDVWGQGTTVTVSS VL: DIQLTQSPSTLSASVGDRVTITCRASQSISNYLNWYQQKPGKAPKLLIYAASSLHSGVPSRFSGSGSGTDFTLTISSLQPEDFASYYCQQYQSYPLTFGQGTKVEIKR | 2.02 | 
11 | LIBC681593-1 (IgG1 SEFL2 mAb) (antibody, V domains shown) VH: QVQLQESGPGLVKPSQTLSLTCTVSGGSIRRGGDYWAWIRQHPGKGLEWIGHIYQTGSTNYNPRFKGRATISVNTYKNQFSLKLSSVTAADTAVYYCARNYDTLTGYSYYYYGMDVWGQGTTVTVSS VL: DIQMTQSPSSLSASVGDRVTITCRASQSISSYLNWYQQKPGKAPKLLIYNARRLGSGVPSRFSGSGSGTDFTLTISSLQPEDFATYYCQQYRSSPVTFGGGTKVEIKR | 0.61 | 
12 | LIBC681594-1 (IgG1 SEFL2 mAb) (antibody, V domains shown) VH: QVQLQESGPGLVKPSQTLSLTCTVSGGSIRRGGDYWAWIRQHPGKGLEWIGHIYQTGSTNYNPRFKGRATISVNTYKNQFSLKLSSVTAADTAVYYCARNYDTLTGYSYYYYGMDVWGQGTTVTVSS VL: DIQMTQSPSSLSASVGDRVTITCRASQSISSYLNWYQQKPGKAPKLLIYKARKLSSGVPSRFSGSGSGTDFTLTISSLQPEDFATYYCQQFGSMPLTFGGGTKVEIKR | 1.24 | 
13 | LIBC681737-1(LC:P12S) (IgG1 SEFL2 mAb) (antibody, V domains shown) VH: QVQLQESGPGLVKPSQTLSLTCTVSGGSIRRGGDYWAWIRQHPGKGLEWIGHVYYTGSTNYNPRFKDRATISVNTYKNQFSLKLSSVTAADTAVYYCARNYDTVTGYSYYYYGMDVWGQGTTVTVSS VL: DIQMTQSPSSLSASVGDRVTITCRASQSISSYLNWYQQKPGKAPKLLIYSARRLASGVPSRFSGSGSGTDFTLTISSLQPEDFATYYCQQYYHPPITFGGGTKVEIKR | 0.55 | 
14 | LIBC680800-1 (IgG1 SEFL2 mAb) (antibody, V domains shown) VH: QVQLQESGPGLVKPSQTLSLTCTVSGGSIRRGGDYWAWIRQHPGKGLEWIGHIYQTGSTNYNPRFKGRATISVNTYKNQFSLKLSSVTAADTAVYYCARNYDTLTGYSYYYYGMDVWGQGTTVTVSS VL: DIQMTQSPSSLSASVGDRVTITCRASQSISSYLNWYQQKPGKAPKLLIYSARALSSGVPSRFSGSGSGTDFTLTISSLQPEDFATYYCQQYRKFPLTFGGGTKVEIKR | 1.57 | 
15 | LIBC680773-1 (IgG1 SEFL2 mAb) (antibody, V domains shown) VH: QVQLQESGPGLVKPSQTLSLTCTVSGGSIRRGGDYWAWIRQHPGKGLEWIGHVYYTGSTNYNPRFKDRATISVNTYKNQFSLKLSSVTAADTAVYYCARNYDTVTGYSYYYYGMDVWGQGTTVTVSS VL: DIQMTQSPSSLSASVGDRVTITCRASQSISSYLNWYQQKPGKAPKLLIYKARLLSSGVPSRFSGSGSGTDFTLTISSLQPEDFATYYCQQYSRLPLTFGGGTKVEIKR | 0.74 | 
16 | LIBC673965-1 (IgG1 SEFL2 mAb) (antibody, V domains shown) VH: QVQLQESGPGLVKPSQTLSLTCTVSGGSIRRGGDYWSWIRQHPGKGLEWIGHVYYTGQTAYNPSLRGRVRISVNTYKNQFSLKLSSVTAADTAVYYCARGYDTSGYSYYYYGLDVWGQGTTVTVSS VL: not shown | 2.21 | 
17 | LIBC673982-1 (IgG1 SEFL2 mAb) (antibody, V domains shown) VH: QVQLQESGPGLVKPSQTLSLTCTVSGGSIRRGGDYWSWIRQHPGKGLEWIGHIYYTGSTTYNPSFRGRVRISVNTYKNQFSLKLSSVTAADTAVYYCARDYDISGYSYYYYGMDVWGQGTTVTVSS VL: not shown | 2.11 | 
18 | LIBC673972-1 (IgG1 SEFL2 mAb) (antibody, V domains shown) VH: QVQLQESGPGLVKPSQTLSLTCTVSGGSIRRGGDYWSWIRQHPGKGLEWIGHIYYTGQTAYNPNLRNRVRISVNTYKNQFSLKLSSVTAADTAVYYCARGYDASGYSYYYYGLDVWGQGTTVTVSS VL: not shown | 2.43 | 
19 | LIBC674200-1 (LC: G76D) (IgG1 SEFL2 mAb) (antibody, V domains shown) VH: QVQLQESGPGLVKPSQTLSLTCTVSGGSIRRGGDYWSWIRQHPGKGLEWIGHVYYTGQTAYNPNFRNRVRISVNTYKNQFSLKLSSVTAADTAVYYCARGYDVSGYSYYYYGMDVWGQGTTVTVSS VL: not shown | 2.23 | 
20 | 10D10 (antibody, V domains shown) VH: QVQLQESGPGLVKPSQTLSLTCTVSGGSIRRGGDYWSWIRQHPGKGLEWIGYIYYSGSTNYNPSLKSRATISVDTSKNQFSLKLSSVTAADTAVYYCARDYDILTGYSYYYYGMDVWGQGTTVTVSS VL: not shown | 347 | 
